{
  "source": "patent US20260286413A1",
  "about": "“HYALURONAN SYNTHESIS, SECRETION AND LENGTH CONTROL” (UNIVERSITY OF VIRGINIA, priority 2023, published 2026)",
  "molecules": {"B1": {"name": "HAS1: human HA synthase isoform 1 (protein, UniProt Q92839 1-578, looked up)", "Hyaluronan synthase 1": "MRQQDAPKPTPAACRCSGLARRVLTIAFALLILGLMTWAYAAGVPLASDRYGLLAFGLYGAFLSAHLVAQSLFAYLEHRRVAAAARGPLDAATARSVALTISAYQEDPAYLRQCLASARALLYPRARLRVLMVVDGNRAEDLYMVDMFREVFADEDPATYVWDGNYHQPWEPAAAGAVGAGAYREVEAEDPGRLAVEALVRTRRCVCVAQRWGGKREVMYTAFKALGDSVDYVQVCDSDTRLDPMALLELVRVLDEDPRVGAVGGDVRILNPLDSWVSFLSSLRYWVAFNVERACQSYFHCVSCISGPLGLYRNNLLQQFLEAWYNQKFLGTHCTFGDDRHLTNRMLSMGYATKYTSRSRCYSETPSSFLRWLSQQTRWSKSYFREWLYNALWWHRHHAWMTYEAVVSGLFPFFVAATVLRLFYAGRPWALLWVLLCVQGVALAKAAFAAWLRGCLRMVLLSLYAPLYMCGLLPAKFLALVTMNQSGWGTSGRRKLAANYVPLLPLALWALLLLGGLVRSVAHEARADWSGPSRAAEAYHLAAGAGAYVGYWVAMLTLYWVGVRRLCRRRTGGYRVQV"}, "B2": {"name": "HAS2: human HA synthase isoform 2 (protein, UniProt Q92819 1-552, looked up)", "Hyaluronan synthase 2": "MHCERFLCILRIIGTTLFGVSLLLGITAAYIVGYQFIQTDNYYFSFGLYGAFLASHLIIQSLFAFLEHRKMKKSLETPIKLNKTVALCIAAYQEDPDYLRKCLQSVKRLTYPGIKVVMVIDGNSEDDLYMMDIFSEVMGRDKSATYIWKNNFHEKGPGETDESHKESSQHVTQLVLSNKSICIMQKWGGKREVMYTAFRALGRSVDYVQVCDSDTMLDPASSVEMVKVLEEDPMVGGVGGDVQILNKYDSWISFLSSVRYWMAFNIERACQSYFGCVQCISGPLGMYRNSLLHEFVEDWYNQEFMGNQCSFGDDRHLTNRVLSLGYATKYTARSKCLTETPIEYLRWLNQQTRWSKSYFREWLYNAMWFHKHHLWMTYEAIITGFFPFFLIATVIQLFYRGKIWNILLFLLTVQLVGLIKSSFASCLRGNIVMVFMSLYSVLYMSSLLPAKMFAIATINKAGWGTSGRKTIVVNFIGLIPVSVWFTILLGGVIFTIYKESKRPFSESKQTVLIVGTLLYACYWVMLLTLYVVLINKCGRRKKGQQYDMVLDV"}, "B3": {"name": "X1HAS1: Xenopus laevis HA synthase isoform 1, wild type (Uniprot P13563, SEQ ID NO: 9) (protein, UniProt P13563 1-588, looked up)", "Hyaluronan synthase 1": "MKEKAAETMEIPEGIPKDLEPKHPTLWRIIYYSFGVVLLATITAAYVAEFQVLKHEAILFSLGLYGLAMLLHLMMQSLFAFLEIRRVNKSELPCSFKKTVALTIAGYQENPEYLIKCLESCKYVKYPKDKLKIILVIDGNTEDDAYMMEMFKDVFHGEDVGTYVWKGNYHTVKKPEETNKGSCPEVSKPLNEDEGINMVEELVRNKRCVCIMQQWGGKREVMYTAFQAIGTSVDYVQVCDSDTKLDELATVEMVKVLESNDMYGAVGGDVRILNPYDSFISFMSSLRYWMAFNVERACQSYFDCVSCISGPLGMYRNNILQVFLEAWYRQKFLGTYCTLGDDRHLTNRVLSMGYRTKYTHKSRAFSETPSLYLRWLNQQTRWTKSYFREWLYNAQWWHKHHIWMTYESVVSFIFPFFITATVIRLIYAGTIWNVVWLLLCIQIMSLFKSIYACWLRGNFIMLLMSLYSMLYMTGLLPSKYFALLTLNKTGWGTSGRKKIVGNYMPILPLSIWAAVLCGGVGYSIYMDCQNDWSTPEKQKEMYHLLYGCVGYVMYWVIMAVMYWVWVKRCCRKRSQTVTLVHDIPDMCV"}},
  "key": {"[1]": {"test_system": "Hyaluronic acid synthesis", "settings": "cited from earlier work"}, "[2]": {"target": "T1, X1HAS1 (Xenopus laevis, UniProt P13563)", "T1 construct": "dodeca-histidine (His12) (N); made in house; host or cells: Spodoptera frugiperda Sf9 cells (baculovirus)", "T1 sequence (P13563 1-588)": "B3 Hyaluronan synthase 1", "test": "Substrate turnover rate quantification (UDP release, enzyme-coupled assay)", "format": "biochemical", "settings": "for Km: one substrate titrated at saturating concentration of the other, real-time quantification of released UDP, read-out: Michaelis-Menten constant"}, "[3]": {"test_system": "HAS isoforms", "settings": "cited from earlier work"}, "[4]": {"target": "T1, X1HAS1", "test": "Electrophoretic HA size determination (agarose gel, Stains-all) of in vitro synthesized HA", "format": "biochemical", "outline": "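Hyaluronan made in vitro by X1HAS1 was size-analyzed by combining reactions with SDS-PAGE loading dye and running them on a 1% agarose gel. The gel was equilibrated in 50% ethanol for 1.5 h, stained overnight in the dark with 0.05% Stains-all, then destained in 20% ethanol. Sizes were judged against Streptococcus equi HA standards and HA ladders, with hyaluronidase-digested controls.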"}},
  "data": [
    {"molecule": "Cc1cc(=O)oc2cc(O)ccc12", "note": "[4-methylumbelliferone]", "values": [
      {"measurement": "effect on hyaluronic acid synthesis", "setting": "[1]", "result": "inhibited"}
    ]},
    {"molecule": "O=C(O)[C@H]1O[C@H](OP(=O)(O)OP(=O)(O)OC[C@H]2O[C@@H](n3ccc(=O)[nH]c3=O)[C@H](O)[C@@H]2O)[C@H](O)[C@@H](O)[C@@H]1O", "note": "[UDP-GlcA, reference compound]", "values": [
      {"measurement": "Km", "setting": "[2]", "result": "~370", "unit": "µM"}
    ]},
    {"molecule": "CC(=O)N[C@H]1[C@@H](OP(=O)(O)OP(=O)(O)OC[C@H]2O[C@@H](n3ccc(=O)[nH]c3=O)[C@H](O)[C@@H]2O)O[C@H](CO)[C@@H](O)[C@@H]1O", "note": "[UDP-GlcNAc, reference compound]", "values": [
      {"measurement": "Km", "setting": "[2]", "result": "~470", "unit": "µM"}
    ]},
    {"molecule": "B1", "values": [
      {"measurement": "HA polymer size", "setting": "[3]", "result": "several megadaltons"}
    ]},
    {"molecule": "B2", "values": [
      {"measurement": "HA polymer size", "setting": "[3]", "result": "several megadaltons"}
    ]},
    {"molecule": "B3", "values": [
      {"measurement": "activity reduction when manganese is used instead of magnesium as cofactor", "setting": "[2]; Mn2+ instead of Mg2+", "result": "about 30%"},
      {"measurement": "overall catalytic rate", "setting": "[2]; UDP release", "result": "approximately 30 substrate turnovers per minute"},
      {"measurement": "HA production with Mn2+", "setting": "[4]; agarose gel assay, Mn2+ versus Mg2+", "result": "reduces HA production slightly"},
      {"measurement": "catalytic rate suggested by electrophoretic analysis versus rate by UDP quantification", "setting": "[4]; based on ~1.6 MDa produced within 90 min", "result": "about 2 times"},
      {"measurement": "size of HA polymers with sustained high substrate", "setting": "[4]; both substrates (2.5 mM) supplemented at 2, 4, 6 h, UDP converted to UTP", "result": "> 1.6", "unit": "MDa"},
      {"measurement": "size of HA polymers synthesized at completion", "setting": "[4]; in vitro synthesis, relative to HA marker", "result": "> 1.6", "unit": "MDa"},
      {"measurement": "HA product length", "setting": "[4]; produced within 90 min", "result": "~ 1.6 MDa"},
      {"measurement": "change of HA size with one substrate limiting", "setting": "[4]; substrate replenishing, UDP-GlcNAc at 0.1-1 mM", "result": "no increase in HA size"},
      {"measurement": "maximum HA extension", "setting": "[4]; without UDP removal, 2.5 mM of both substrates", "result": "~1.6", "unit": "MDa"}
    ]}
  ]
}
